The values that follow come from patent US20260000780A1, “B-LYMPHOCYTE SPECIFIC AMATOXIN ANTIBODY CONJUGATES” (priority 2021, published 2026).

One series concerns MEC-2 tumor xenograft. Description: Disseminated MEC-2 tumor xenograft model. To be noted: day 138 after treatment. Type of series: in vivo, CB17 Scid mice. As for the experimental part: Cytotoxic efficacy studies in vivo were performed using various anti-CD37 antibody amatoxin conjugates in a disseminated MEC-2 tumor xenograft model over 140 days of treatment.
Tumor cell inoculation was done on day −3 by i.v. injection of 2.5×10^6 MEC-2 cells in CB17 Scid mice. Treatment was performed on day 0 by single dose i.v. injection at maximum tolerable dose (MTD) of ⅛ and MTD of 1/16 doses, respectively. Readout of the study was body weight and survival. Results are shown in FIG. 10 (body weight) and FIG. 11 (survival) at day 138 after treatment. All groups treated with conjugate gained body weight as normal, in contrast to the control group.
Treatment groups are defined in Table 4. Group 10 (chHH1-HDP-LALA-D265C, p.o., single dose; 10 mg/kg) was excluded from analysis. Group 11 (Ibrutinib) was treated with Ibrutinib p.o. 5x/w for 3 weeks at a dose 25 mg/kg.

The target of a further series is RNA-polymerase II (Homo sapiens, UniProt P24928+P30876). The following applies: read-out: KD of the complex between amanitin and RNA-polymerase II; cited from earlier work.
In series [1] the test system is Richter syndrome cells (PDX RS1316). Kind of series: Richter's syndrome patient-derived xenograft (PDX) model, intravenous. It is filed as in vivo, CB17 Scid mice. To be noted: for efficacy in treating RS / tolerability of a single dose: single dose at different doses, 15 days post engraftment. From the text:
The patient-derived xenograft (PDX) model for Richter's syndrome were adapted from Cancer Res (2018); 78 (13); 3413-20 with modifications.
Briefly, a total of 2×10^7 primary Richter syndrome cells from peripheral blood or lymph nodes were resuspended in Matrigel (BD Biosciences) and subcutaneously injected (double flank) in 8-week old CB17 Scid mice immunocompromised mice and left to engraft. Tumor masses were then collected, partially disrupted, and tumor cells reinjected as a single-cell suspension in Matrigel. These steps were repeated several times to obtain stable models of Richter syndrome.
For the intravenous model, 10^7 Richter syndrome cells purified from tumor masses were resuspended in PBS and injected in the tail vein of the mice. Mice were injected with a single dose of the conjugates XXIII, XXIV, or XXVI as indicated. All mice within the PBS control group died within 68 days post engraftment. One animal in the group receiving conjugate XXVI at a dose of 5 mg/kg i.v. died at day 90 post engraftment.
To assess residual RS disease activity in the organs of engrafted animals mice were euthanized and peripheral blood and organs (kidneys, spleen, bone marrow, lung, liver, and brain) collected and disease spread evaluated by flow cytometry, using anti-human antibodies (CD45PerCPCy5.5/CD19APC/CD20FITC).
On the technique in general: A xenograft is tissue or cells of one species grown in another, often human tumour cells in immunodeficient mice.

The next series has as its system Raji-Luc tumor xenograft. Kind of series: Disseminated Raji-Luc tumor xenograft model. Type of series: in vivo, CB17 Scid mice. The following applies: single dose i.v., day 89 after treatment. The method, then:
Cytotoxic efficacy studies in vivo were performed using various anti-CD37 antibody amatoxin conjugates in a disseminated Raji-Luc tumor xenograft model over 89 days of treatment.
Tumor cell inoculation was done on day-3 by i.v. injection of 2.5×10^6 Raji-Luc cells in CB17 Scid mice. Treatment was performed on day 0 by single dose i.v. injection at maximum tolerable dose (MTD) of 1/16 and MTD of 1/64 doses of cynomolgus MTD, respectively. Readout of the study was body weight, bioluminescence and survival. Results are shown in FIG. 10 (body weight), FIG. 11 (bioluminescence) and FIG. 12 (survival) at day 89 after treatment. All groups treated with conjugate gained body weight as normal, in contrast to the control group.

On to `C=CC(=O)N1CCC[C@@H](n2nc(-c3ccc(Oc4ccccc4)cc3)c3c(N)ncnc32)C1` [Ibrutinib, reference compound], for which the Alive animals in the series on MEC-2 tumor xenograft (25 mg/kg p.o. 5×/w for 3 weeks) is 0/10.
amanitin: the Kd on RNA-polymerase II is 3 nM.

B1: conjugate XXVI (conjugate)
heavy: EIQLQQSGPELVKPGASVKVSCKASGYSFTDYNMYWVKQSHGKSLEWIGYIDPYNGDTTYNQKFKGKATLTVDKSSSTAFIHLNSLTSEDSAVYYCARSPYGHYAMDYWGQGTSVTVSSASTKGPSVFPLAPSSKSTSGGTAALGCLVKDYFPEPVTVSWNSGALTSGVHTFPAVLQSSGLYSLSSVVTVPSSSLGTQTYICNVNHKPSNTKVDKKVEPKSCDKTHTCPPCPAPEAAGGPSVFLFPPKPKDTLMISRTPEVTCVVVCVSHEDPEVKFNWYVDGVEVHNAKTKPREEQYNSTYRVVSVLTVLHQDWLNGKEYKCKVSNKALPAPIEKTISKAKGQPREPQVYTLPPSREEMTKNQVSLTCLVKGFYPSDIAVEWESNGQPENNYKTTPPVLDSDGSFFLYSKLTVDKSRWQQGNVFSCSVMHEALHNHYTQKSLSLSPGK
light: DIVMTQSHKLLSTSVGDRVSITCKASQDVSTAVDWYQQKPGQSPKLLINWASTRHTGVPDRFTGSGSGTDYTLTISSMQAEDLALYYCRQHYSTPFTFGSGTKLEIKRTVAAPSVFIFPPSDEQLKSGTASVVCLLNNFYPREAKVQWKVDNALQSGNSQESVTEQDSKDSTYSLSSTLTLSKADYEKHKVYACEVTHQGLSSPVTKSFNRGEC
In the case of B1, in series [1] (5 mg/kg i.v. single dose, n=4, death at day 90 post engraftment), the “animals that died in the treated group” value is “One animal”. In addition, in series [1], the “efficacy in treating RS” value is listed as “effective in treating RS” and the “tolerability of a single dose” value was “well tolerated”.

B2: Conjugate XXV (conjugate)
heavy chain: EIQLQQSGPELVKPGASVKVSCKASGYSFTDYNMYWVKQSHGKSLEWIGYIDPYNGDTTYNQKFKGKATLTVDKSSSTAFIHLNSLTSEDSAVYYCARSPYGHYAMDYWGQGTSVTVSSASTKGPSVFPLAPSSKSTSGGTAALGCLVKDYFPEPVTVSWNSGALTSGVHTFPAVLQSSGLYSLSSVVTVPSSSLGTQTYICNVNHKPSNTKVDKKVEPKSCDKTHTCPPCPAPEAAGGPSVFLFPPKPKDTLMISRTPEVTCVVVCVSHEDPEVKFNWYVDGVEVHNAKTKPREEQYNSTYRVVSVLTVLHQDWLNGKEYKCKVSNKALPAPIEKTISKAKGQPREPQVYTLPPSREEMTKNQVSLTCLVKGFYPSDIAVEWESNGQPENNYKTTPPVLDSDGSFFLYSKLTVDKSRWQQGNVFSCSVMHEALHNHYTQKSLSLSPGK
light chain: DIVMTQSHKLLSTSVGDRVSITCKASQDVSTAVDWYQQKPGQSPKLLINWASTRHTGVPDRFTGSGSGTDYTLTISSMQAEDLALYYCRQHYSTPFTFGSGTKLEIKRTVAAPSVFIFPPSDEQLKSGTASVVCLLNNFYPREAKVQWKVDNALQSGNSQESVTEQDSKDSTYSLSSTLTLSKADYEKHKVYACEVTHQGLSSPVTKSFNRGEC
Consider B2, for which the Alive animals in the series with MEC-2 tumor xenograft (0.94 mg/kg (MTD 1/16), i.v. single dose) is on record as 8/10; with MEC-2 tumor xenograft (1.88 mg/kg (MTD 1/8), i.v. single dose), 9/10; in the series on Raji-Luc tumor xenograft (0.188 mg/kg (MTD 1/64)), 9/10; in the series with Raji-Luc tumor xenograft (0.75 mg/kg (MTD 1/16)), 10/10.

B3: Conjugate XXIV (conjugate)
heavy: EIQLQQSGPELVKPGASVKVSCKASGYSFTDYNMYWVKQSHGKSLEWIGYIDPYNGDTTYNQKFKGKATLTVDKSSSTAFIHLNSLTSEDSAVYYCARSPYGHYAMDYWGQGTSVTVSSASTKGPSVFPLAPSSKSTSGGTAALGCLVKDYFPEPVTVSWNSGALTSGVHTFPAVLQSSGLYSLSSVVTVPSSSLGTQTYICNVNHKPSNTKVDKKVEPKSCDKTHTCPPCPAPEAAGGPSVFLFPPKPKDTLMISRTPEVTCVVVCVSHEDPEVKFNWYVDGVEVHNAKTKPREEQYNSTYRVVSVLTVLHQDWLNGKEYKCKVSNKALPAPIEKTISKAKGQPREPQVYTLPPSREEMTKNQVSLTCLVKGFYPSDIAVEWESNGQPENNYKTTPPVLDSDGSFFLYSKLTVDKSRWQQGNVFSCSVMHEALHNHYTQKSLSLSPGK
light: DIVMTQSHKLLSTSVGDRVSITCKASQDVSTAVDWYQQKPGQSPKLLINWASTRHTGVPDRFTGSGSGTDYTLTISSMQAEDLALYYCRQHYSTPFTFGSGTKLEIKRTVAAPSVFIFPPSDEQLKSGTASVVCLLNNFYPREAKVQWKVDNALQSGNSQESVTEQDSKDSTYSLSSTLTLSKADYEKHKVYACEVTHQGLSSPVTKSFNRGEC
Turning to B3, the Alive animals in the series with MEC-2 tumor xenograft (1.25 mg/kg (MTD 1/16), i.v. single dose) is given as 4/10; in the series with MEC-2 tumor xenograft (2.5 mg/kg (MTD 1/8), i.v. single dose), 6/10; in the series with Raji-Luc tumor xenograft (0.188 mg/kg (MTD 1/64)), 9/10; with Raji-Luc tumor xenograft (0.75 mg/kg (MTD 1/16)), 10/10. Besides, the “efficacy in treating RS” value in series [1] is “effective in treating RS”. Also, in series [1], the “tolerability of a single dose” value was “well tolerated”. Also, in series [1] (single dose, 5 mg), the “residual RS disease activity in organs (flow cytometry CD45/CD19/CD20)” value was “significantly reduce”.

A word on the Kd: it is a measure of binding affinity in units of concentration.
